{"source": "patent US20220153838A1", "target": "CD19 (UniProt P15391)", "sequence (P15391 20-556 limits assumed)": "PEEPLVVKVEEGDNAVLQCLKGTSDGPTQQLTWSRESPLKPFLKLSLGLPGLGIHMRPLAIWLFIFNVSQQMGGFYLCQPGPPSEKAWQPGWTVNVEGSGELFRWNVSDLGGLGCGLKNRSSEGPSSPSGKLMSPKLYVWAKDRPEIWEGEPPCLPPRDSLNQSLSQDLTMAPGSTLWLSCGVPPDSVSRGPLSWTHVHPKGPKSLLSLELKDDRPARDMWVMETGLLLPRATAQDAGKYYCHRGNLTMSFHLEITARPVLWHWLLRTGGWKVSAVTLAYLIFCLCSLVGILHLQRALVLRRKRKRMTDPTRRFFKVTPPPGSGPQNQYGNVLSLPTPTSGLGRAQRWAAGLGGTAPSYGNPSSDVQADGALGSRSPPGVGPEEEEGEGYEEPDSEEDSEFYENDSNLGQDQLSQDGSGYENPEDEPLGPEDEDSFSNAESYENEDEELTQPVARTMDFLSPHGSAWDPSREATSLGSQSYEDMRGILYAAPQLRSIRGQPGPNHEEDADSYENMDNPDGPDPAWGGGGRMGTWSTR", "assay": "cell-based or functional assay"}
{"substance": "FMC63-CD8BBZ CAR", "values": [{"measurement": "IFNγ ELISA, CAR T-cells cultured overnight with CD19-K562 cells", "result": 44300, "unit": "pg/mL IFNγ"}, {"measurement": "IFNγ ELISA, CAR T-cells cultured overnight with primary CLL cells (CD19-Positive Targets)", "result": 13900, "unit": "pg/mL IFNγ"}]}
